Series [1] has as its target T1, α-N-Arabinofuranosidase (FjArf51) (Flavobacterium johnsoniae, UniProt A5FF88).
T1 construct: gene Fjoh_3113; full-length codon-optimised synthetic gene, pET-28a(+), C-terminal 6xHis, E. coli BL21(DE3) pLysS, 75 kDa
T1 sequence (A5FF88 1-661): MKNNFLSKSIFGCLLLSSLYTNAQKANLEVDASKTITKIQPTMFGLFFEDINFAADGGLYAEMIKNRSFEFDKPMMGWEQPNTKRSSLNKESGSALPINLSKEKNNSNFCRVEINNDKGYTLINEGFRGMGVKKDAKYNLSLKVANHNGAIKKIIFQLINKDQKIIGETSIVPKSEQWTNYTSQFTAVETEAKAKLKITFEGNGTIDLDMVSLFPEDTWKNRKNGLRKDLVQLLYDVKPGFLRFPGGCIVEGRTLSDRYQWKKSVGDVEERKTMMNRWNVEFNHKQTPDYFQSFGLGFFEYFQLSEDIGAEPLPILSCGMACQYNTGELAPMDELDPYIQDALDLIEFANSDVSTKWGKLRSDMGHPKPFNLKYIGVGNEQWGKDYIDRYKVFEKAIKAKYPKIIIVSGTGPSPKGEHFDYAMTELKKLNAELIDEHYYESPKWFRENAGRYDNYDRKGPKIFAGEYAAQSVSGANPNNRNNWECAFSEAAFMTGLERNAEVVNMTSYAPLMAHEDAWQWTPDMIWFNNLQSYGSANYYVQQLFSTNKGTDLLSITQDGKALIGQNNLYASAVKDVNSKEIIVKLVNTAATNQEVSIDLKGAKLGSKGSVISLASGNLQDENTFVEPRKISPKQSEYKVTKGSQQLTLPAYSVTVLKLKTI
Description: 4-nitrophenol release at […] nm, Michaelis-Menten fit. Format: biochemical. The note with it: 30 °C, pH 7, 50 mM phosphate.

Substrate in series [2]: O=[N+]([O-])c1ccc(O[C@@H]2OC[C@@H](O[C@@H]3OC[C@@H](O[C@@H]4OC[C@@H](O)[C@H](O)[C@H]4O)[C@H](O)[C@H]3O)[C@H](O)[C@H]2O)cc1
Briefly: purified protein. The class given is biochemical, Flavobacterium johnsoniae. The note with it: 30 °C, pH 6, 50 mM phosphate.

Substrate in series [3]: O=[N+]([O-])c1ccc(O[C@@H]2O[C@H](CO)[C@@H](O)[C@H](O)[C@@H]2O)cc1
Description: purified protein. Format: biochemical, Agrobacterium fabrum. To be noted: 30 °C, pH 7, 50 mM phosphate.

Substrate in series [4]: O=[N+]([O-])c1ccc(O[C@@H]2O[C@H](CO)[C@H](O)[C@H](O)[C@H]2O)cc1
Description: purified protein. The note with it: 30 °C, pH 7, 50 mM phosphate. The class given is biochemical, Agrobacterium fabrum.

Substrate in series [5]: C[C@@H]1O[C@@H](Oc2ccc([N+](=O)[O-])cc2)[C@@H](O)[C@H](O)[C@@H]1O
Briefly: purified protein. The class given is biochemical, Spirosoma linguale. To be noted: 30 °C, pH 5, 50 mM citrate-phosphate.

Substrate in series [6]: O=[N+]([O-])c1ccc(O[C@@H]2OC[C@@H](O[C@@H]3OC[C@@H](O[C@@H]4OC[C@@H](O)[C@H](O)[C@H]4O)[C@H](O)[C@H]3O)[C@H](O)[C@H]2O)cc1
Briefly: purified protein. Format: biochemical, Spirosoma linguale. To be noted: 30 °C, pH 6, 50 mM phosphate.

Broadly, the Km is the concentration of substrate that gives half-maximal velocity. Turning to `O=[N+]([O-])c1ccc(O[C@@H]2OC[C@H](O)[C@H](O)[C@H]2O)cc1` [4NP-α-Ara], the Km in series [1] was 220 ± 87 µM.

B1: Oligosaccharide reducing end Xylanase (FjXyn8) (Flavobacterium johnsoniae UW101) (protein)
chain: MTVHHNITNGYLSKIHLLLLIFALIVPAFVISQNKKKIDRELKKPQYRNLFKEAGYSQDDIDKKLTKAYYDVFEGPDKVYFEEGDSLGYVSDVKNKDARTEGMSYGMMVAVQFNKKDVFDRLWRWSVKYMQHQDGPREGYFAWSVNPQTKKQNSAGSASDGELYYITSLLFASNKWGNDTGINYYKEARRILDAMWKKDGTGNIYNIINTEHKQISFVPEGGGYNWTDPSYHVPAFYEIWALYAKDGHEQFYKECAEVSRKFLHKACHPVTGLTSDYTEFNGEPHPTPWLPPGFRYDSWRVPMNIAMDYTWYGKDKEWQEDYAKRFQNFLRSKGLETYEDQFNLDGSTPEFILQAGPVKKLRHSIGLVGTAATASLVNKDKASIDFVHAVWNAKLEPYEDGYFDPYYDGLMYLFSLMHLSGNYQIIVPKG
notes: full-length codon-optimised synthetic gene, pET-28a(+), C-terminal 6xHis, E. coli BL21(DE3) pLysS, 50 kDa
As usually defined, the kcat is the number of substrate molecules converted per active site and unit of time at saturation. The term kcat/Km denotes the second-order rate constant that governs catalysis at low substrate concentration. On to B1, for which, in “purified protein [2]”, the Km was 790 ± 222 µM, the kcat was 5.15 s⁻¹ and the kcat/Km was 6530 M⁻¹ s⁻¹.

B2: β-Mannosidase (AfMan2) (Agrobacterium fabrum str. C58) (protein)
chain: MISSSTPETVIDLAGLWHLASVEGDHATEISIPGDIHSALKNAAIIPDPYHGANEKAVQWVAQQDWIIERTFILDDAEASWYLDIDYLDTVAIVFVNDVPVLSADNCFRRYRPDISRAVRPGENTIRIHFHSNITAGAERQARQPFYIPYHPGNSPIANGNMLRKPQCHFGWDWNIAIAPLGLYGKILLKRLDTARIEHVVSSQHHVEGGVELHVAVTLFAEGPASLPVYLSLGDERLRLECGVGAGETVVRHVFFVENPDLWWPAGSGEQTLYKLTVELPDETVTRQIGFRTIELLTDKDEAGSRFAFRINGREIFCRGANWIPADALYSLTSREKTEDLLCSAVEANMNMIRVWGGGFYEEDWFYDLCDRLGLLVWQDFMFACNLYPCSEDFLDNVEHEVDYQVKRLSSHPSIALWCGDNELVGALTWFDESRNNRDRYLVAYDRLNRTIEKALKKATPEALWWPSSPASGYLDYGDAWHADGSGDMHYWSVWHENKSFDNYHQVKPRFCSEFGFQSYTSMPVIRTYAEDKDMNIASPVIELHQKNVGGNERIAGTMFRYFRFPRDFENFVYLSQVQQALAIRTAVDYWRSLKPHCMGTLYWQLNDTWPVASWSSLDYGGGWKALHYAARRFFQPVAVSAIPSADGRRVTFSMVNDTAEDVEIDMNIVALAMDGNRVPLKSANGTCTSDKAATLTDIDMDSLPDGAILAWNFIASNGMTGEGHHVRDTYKALELQPAGLEFSVGPLKNGQFEIDVTAAGLALFIMLEADQPGRYSDNLFDLAAGETRRIIFTPKGAGPQPHFRIFDLHTCQSSPNPGIETMRRKA
notes: full-length codon-optimised synthetic gene, pET-28a(+), C-terminal 6xHis, E. coli BL21(DE3) pLysS, 93 kDa
On to B2, for which, in “purified protein [3]”, the Km stood at 680 ± 219 µM, the kcat amounted to 1350 s⁻¹ and the kcat/Km was 1.98e+06 M⁻¹ s⁻¹. In addition, in the series “purified protein [4]”, the Km came to 250 ± 62 µM, the kcat was determined as 269 s⁻¹ and the kcat/Km turned out to be 1.08e+06 M⁻¹ s⁻¹.

B3: α-L-Fucosidase (SlFuc29) (Spirosoma linguale DSM 74) (protein)
chain: MKKQITSILFSLLVSTSALAQQHSEQNHDKYVWPKDELVKKKLANWQDIKFGLLMHWGTYSEWGVVESWSLCPEDEGWCERRGPYAANWFEYKKAYENLQTTFNPTKFNPERWANAAKGAGMKYVVFTTKHHDGFCMFDTKLTDYKITDKKTPFSSNPRSNVTKEILGAFRQQGFMVGTYFSKPDWHTEDYWWTYFPPKDRNVSYDPKKYPDHWKKFSDFTYNQIEELMTGYGNVDILWLDGGWVRPASTIDSTVSWQRTIPYSQDINMARIAGMARQHQPGLLVVDRTVSGEFENYVTPEQSIPDHYMPIPWESCITMGDSWSYIPKENFKPARKLVQTLVDIVAKNGNLLLNIAPGPDGEWHEEAYQRLQEIGKWITVNGESIYGTKPLAPYRQGQWAFTSNNKAVYASYLPSESEQQLPASISLPALTVAPNAKVTVLGASQALKLTKTKDGFSVVVPEKVRQQLAGQPVWVFKIG
notes: full-length codon-optimised synthetic gene, pET-28a(+), C-terminal 6xHis, E. coli BL21(DE3) pLysS, 55 kDa
In the case of B3, in “purified protein [5]”, the Km was found to be 580 ± 20 µM, the kcat came to 53.1 s⁻¹ and the kcat/Km was 91800 M⁻¹ s⁻¹.

B4: Xylan β-1,4 Xylosidase (SlXyn39) (Spirosoma linguale DSM 74) (protein)
chain: MPLLRRFCLQTGHLSALFFGLVVSVAFGSIDSHAQTSPDKPVAIQVDLTKDKGPLKPIWAWFGYDEPNYTYMKDGRKLLTEISQLSKVPVNVRVHSLLVTGDGTAALKWGSTNAYTEDKAGNPIYNWTIIDKIFDTFIERGMKPIAQIGFMPEALSTKPQPYRHYWKPGDNYNDIYTGWAYPPKDYKKWSELVYQWVKHSVQRYGQKEVESWYWELWNEPNISYWKGTTEEYIKLYDYTADAVKRALPTAKIGGPEVTGPNWDVSEKFFRAFMDHVVKGTNAVTGKVGTPIDFITFHAKGAPKVVNGVVQMNMGTQLRDIDKGFAIVASYPSLKNLPIIIGESDPEGCAACSEDLHPQNAYRNGTMYSSYTAASFARKYDLAEARGVNLAGAVTWGFEFEDQAWFRGFRDLATNGVDKPVLNVFRMFGMMQGNRVAVNTDLAYNAKKIRDESVRGEPDINALATKDAQSASVMVWNYHDDNVQGPGSPVSLKINGLTAKKVWVQHYRIDQQFSNSYEVWKKMGSPKAPTAEQVAELEKAGQLQLLASPTWVTVEKGVLTMPFQLPRQGVSLVKVSW
notes: full-length codon-optimised synthetic gene, pET-28a(+), C-terminal 6xHis, E. coli BL21(DE3) pLysS, 65 kDa
Regarding B4, in “purified protein [6]”, the Km was determined as 80 ± 9 µM, the kcat came to 2.17 s⁻¹ and the kcat/Km was found to be 26900 M⁻¹ s⁻¹.

Values taken from PMC6157868, “Characterization of novel glycosyl hydrolases discovered by cell wall glycan directed monoclonal antibody screening and metagenome analysis of maize aerial root mucilage” (PLoS ONE, 2018).
